Paper doi:10.1101/284836

Tests used:
[1] = system: EcCRP-HIS (Escherichia coli); assay: EMSA
[2] = system: HiCRP-HIS (Haemophilus influenzae); assay: EMSA

pilA promoter (CRP-S), Fig. 3 bait
binding signal [1]: 30 % shifted

pilA-N promoter (CRP-N), Fig. 3 bait
binding signal [2]: 6 % shifted
binding signal [1]: 77 % shifted
